Experimental data taken from IntAct's records for PubMed 22035699.

B1: 5-hydroxytryptamine receptor 1A (Homo sapiens), P08908 (parent)
chain: MDVLSPGQGNNTTSPPAPFETGGNTTGISDVTVSYQVITSLLLGTLIFCAVLGNACVVAAIALERSLQNVANYLIGSLAVTDLMVSVLVLPMAALYQVLNKWTLGQVTCDLFIALDVLCCTSSILHLCAIALDRYWAITDPIDYVNKRTPRRAAALISLTWLIGFLISIPPMLGWRTPEDRSDPDACTISKDHGYTIYSTFGAFYIPLLLMLVLYGRIFRAARFRIRKTVKKVEKTGADTRHGASPAPQPKKSVNGESGSRNWRLGVESKAGGALCANGAVRQGDDGAALEVIEVHRVGNSKEHLPLPSEAGPTPCAPASFERKNERNAEAKRKMALARERKTVKTLGIIMGTFILCWLPFFIVALVLPFCESSCHMPTLLGAIINWLGYSNSLLNPVIYAYFNKDFQNAFKKIIKCKFCRQ

Variants of: B1
Details: with fgfr1_human FGFR1, P11362
Chain of fgfr1_human FGFR1, P11362 (P11362 whole entry, looked up): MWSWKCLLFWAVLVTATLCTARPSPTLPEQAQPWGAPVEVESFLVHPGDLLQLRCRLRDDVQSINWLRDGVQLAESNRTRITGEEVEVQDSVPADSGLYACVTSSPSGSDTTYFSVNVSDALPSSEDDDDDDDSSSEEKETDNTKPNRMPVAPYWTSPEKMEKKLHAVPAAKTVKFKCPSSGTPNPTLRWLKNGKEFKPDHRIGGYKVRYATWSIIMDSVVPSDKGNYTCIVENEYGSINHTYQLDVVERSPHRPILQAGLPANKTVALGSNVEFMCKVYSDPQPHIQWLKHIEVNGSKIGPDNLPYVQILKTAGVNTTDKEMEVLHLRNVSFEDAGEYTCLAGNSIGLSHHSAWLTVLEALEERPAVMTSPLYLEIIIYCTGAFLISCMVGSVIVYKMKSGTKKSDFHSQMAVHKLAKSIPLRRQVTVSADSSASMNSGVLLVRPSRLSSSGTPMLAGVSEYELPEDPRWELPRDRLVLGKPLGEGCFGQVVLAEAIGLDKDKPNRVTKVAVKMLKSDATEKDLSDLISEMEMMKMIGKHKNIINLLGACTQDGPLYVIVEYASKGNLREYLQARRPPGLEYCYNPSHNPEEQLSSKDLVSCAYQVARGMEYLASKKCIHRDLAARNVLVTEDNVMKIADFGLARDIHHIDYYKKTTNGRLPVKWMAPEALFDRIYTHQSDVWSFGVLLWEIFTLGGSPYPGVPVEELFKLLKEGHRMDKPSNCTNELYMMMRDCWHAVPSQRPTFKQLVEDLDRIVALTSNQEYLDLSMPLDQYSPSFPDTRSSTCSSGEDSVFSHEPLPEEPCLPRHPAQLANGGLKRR

Variant | effect of a mutation on the interaction
MDVLSPGQGNNTTSPPAPFETGGNTTGISDVTVSYQVITSLLLGTLIFCAVLGNACVVAAIALERSLQNVANYLIGSLAVTDLMVSVLVLPMAALYQVLNKWTLGQVTCDLFIALDVLCCTSSILHLCAIALDRYWAITDPIDYVNKRTPRRAAALISLTWLIGFLISIPPMLGWRTPEDRSDPDACTISKDHGYTIYSTFGAFYIPLLLMLVLYGRIFRAARFRIRKTVKKVEKTGADTRHGASPAPQPKKSVNGESGSRNWRLGVESKAGGALCANGAVRQGDDGAALEVIEVHRVGNSKEHLPLPSEAGPTPCAPASFERKNERNAEAKRKMALARERKTVKTLGIIMGTFILCWLPFFIVALVLPFCESSCHMPTLLGAIINWLGYSNSLLNPVIYAYFNKAAAAAAAAAAACKFCRQ [D406A;F407A;Q408A;N409A;F411A;K412A;K413A;I414A;I415A;K416A] | decreasing interaction
